According to patent US20240262922A1 (Merck KGaA, published 2024):
Read-outs that look alike come from different tables or passages of the source.

T1: recombinant human OX40L protein (R&D Systems, cat. #1054-OX) (human, UniProt P23510 51-183)
T1 construct: Bought soluble recombinant protein; also called rhOX40L; recombinant soluble OX40L
T1 sequence: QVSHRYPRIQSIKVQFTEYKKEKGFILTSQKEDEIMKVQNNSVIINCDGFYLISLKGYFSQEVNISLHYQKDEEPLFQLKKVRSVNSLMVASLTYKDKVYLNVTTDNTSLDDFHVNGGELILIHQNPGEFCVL

T2: recombinant cynomolgus monkey OX40L (Novoprotein cat. #CP72) (cynomolgus monkey, UniProt P23510 51-183 (human entry), limits assumed)
T2 construct: Bought protein; also called cynomolgus OX40L
T2 chain: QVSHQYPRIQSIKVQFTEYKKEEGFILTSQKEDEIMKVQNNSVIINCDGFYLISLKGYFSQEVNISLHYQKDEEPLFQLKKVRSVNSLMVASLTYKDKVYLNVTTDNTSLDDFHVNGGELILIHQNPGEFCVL

T3: mouse OX40L (mouse, UniProt P43488 51-198, limits assumed)
T3 sequence: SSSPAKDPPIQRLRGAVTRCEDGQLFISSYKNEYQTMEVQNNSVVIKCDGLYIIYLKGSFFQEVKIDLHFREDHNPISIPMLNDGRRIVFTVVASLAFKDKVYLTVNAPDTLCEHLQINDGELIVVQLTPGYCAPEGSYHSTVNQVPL

T4: AVI-GST-His6-hOX40L (human, UniProt P23510 51-183)
T4 sequence: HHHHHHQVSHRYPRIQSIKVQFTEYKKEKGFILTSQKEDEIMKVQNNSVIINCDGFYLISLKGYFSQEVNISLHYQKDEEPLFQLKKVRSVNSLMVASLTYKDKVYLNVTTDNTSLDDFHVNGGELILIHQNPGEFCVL


Key:
[1] = target: T1, recombinant human OX40L protein (R&D …); experiment: SPR steady state, Biacore T200; OX40L immobilised on CM5, antibody in solution
Procedure: (§1) Recombinant OX40L proteins (human OX40L protein, R&D systems, cat. #1054-OX; cynomolgus monkey OX40L, Novoprotein cat. #CP72) were immobilized onto Biacore CM5 sensor chips and anti-OX40L antibodies were bound to this surface at a range of concentrations. The response at steady state was measured with a Biacore T200 instrument (GE Healthcare) and plotted against the concentration of antibody and fit to a 1:1 binding model. The steady state KD was determined as the antibody concentration at a response equal to half the maximal response (Rₘₐₓ).
Steady state affinity assay was performed as described in section 1.1.7 of Example 1.

[2] = target: T2, recombinant cynomolgus monkey OX40L …; experiment: flow cytometry on CHO-S-OX40L cells / ELISA on recombinant OX40L (sentence does not say which)
mouse OX40L = target: T3, mouse OX40L; experiment: flow cytometry on CHO-S cells / ELISA on recombinant protein (sentence does not say which)
AVI-GST-His6-hOX40L [3] = target: T4, AVI-GST-His6-hOX40L; experiment: cell-based or functional assay
[4] = target: T1, recombinant human OX40L protein (R&D …); experiment: cell-based or functional assay
AVI-GST-His6-hOX40L [5] = target: T4, AVI-GST-His6-hOX40L; experiment: cell-based or functional assay; remark: listed apart in the source
AVI-GST-His6-hOX40L [6] = target: T4, AVI-GST-His6-hOX40L; experiment: cell-based or functional assay; remark: listed apart in the source
[7] = target: T1, recombinant human OX40L protein (R&D …); experiment: SPR steady state affinity to human OX40L
Procedure: as §1

AVI-GST-His6-hOX40L [8] = target: T4, AVI-GST-His6-hOX40L; experiment: cell-based or functional assay; remark: listed apart in the source
[9] = target: T1, recombinant human OX40L protein (R&D …); experiment: cell-based or functional assay; remark: listed apart in the source
AVI-GST-His6-hOX40L [10] = target: T4, AVI-GST-His6-hOX40L; experiment: cell-based or functional assay; remark: listed apart in the source
[11] = target: T1, recombinant human OX40L protein (R&D …); experiment: SPR steady state, Biacore T200; OX40L immobilised on CM5, antibody in solution; remark: listed apart in the source
Procedure: as §1

[12] = target: T1, recombinant human OX40L protein (R&D …); experiment: SPR steady state, Biacore T200; OX40L immobilised on CM5, FcFab in solution
Procedure: as §1
As with the IgG clones, binding affinity to human OX40L was determined for all twelve FcFabs using steady state affinity assay as described in section 1.1.7 of Example 1. […]

AVI-GST-His6-hOX40L [13] = target: T4, AVI-GST-His6-hOX40L; experiment: cell-based or functional assay; remark: listed apart in the source
[14] = target: T1, recombinant human OX40L protein (R&D …); experiment: cell-based or functional assay; remark: listed apart in the source

Binder | Kd [1] [nM] | binding result [2] | binding result (mouse OX40L) | OX40L neutralization/OX40-HEK Reporter IC50 (AVI-GST-His6-hOX40L [3]) [nM] | Primary T cell activation assay IC50 [4] [nM] | IC50 (read off the curve) (AVI-GST-His6-hOX40L [5]) [nM] | IC50 (read off the curve) (AVI-GST-His6-hOX40L [6]) [nM] | Kd [7] [nM] | OX40L neutralization/OX40-HEK Reporter IC50 (AVI-GST-His6-hOX40L [8]) [nM] | Primary T cell activation assay IC50 [9] [nM] | IC50 (read off the curve) (AVI-GST-His6-hOX40L [10]) [nM] | Kd [11] [nM] | Kd [12] [nM] | OX40L neutralization/OX40-HEK Reporter IC50 (AVI-GST-His6-hOX40L [13]) [nM] | Primary T cell activation assay IC50 [14] [nM]
88B06 (IgG) (antibody) heavy: not shown light: SYELTQPLSVSVALGQTARISCGGNNIGRKNVHWYQQKPGQAPVLVIYGDSNRPSGIPERFSGSNSGNTATLTIGRAQAGDEADYYCQVWDSSTVFGGGTKLTVLGQPKAAPSVTLFPPSSEELQANKATLVCLISDFYPGAVTVAWKADSSPVKAGVETTTPSKQSNNKYAASSYLSLTPEQWKSHKSYSCQVTHEGSTVEKTVAPTECS | 23.2 | binds | no binding | 18.9 | 28.5 |  |  |  |  |  |  |  |  |  | 
67B06 (IgG) (antibody, also called 67B06 (IgG format)) heavy: not shown light: SYELTQPLSVSVALGQTARMTCGGSDIENKNVHWYQQKPGQAPVLVIHRDNNRPSGIPERFSGSNSGNTATLTISRAQAGDEADYYCQVRDSNIVVFGGGTKLTVLGQPKAAPSVTLFPPSSEELQANKATLVCLISDFYPGAVTVAWKADSSPVKAGVETTTPSKQSNNKYAASSYLSLTPEQWKSHKSYSCQVTHEGSTVEKTVAPTECS | 12.7 | binds | no binding | 5.2 | 20.9 |  |  |  |  |  | ~5 |  |  |  | 
67B06 (FcFab) (antibody) heavy: EPKSSDKTHTCPPCPAPPVAGPSVFLFPPKPKDTLMISRTPEVTCVVVDVSHEDPEVKFNWYVDGVEVHNAKTKPREEQYNSTYRVVSVLTVLHQDWLNGKEYKCAVSNKALPSSIEKTISKAKGQPREPQVYTLPPSREEMTKNQVSLTCLVKGFYPSDIAVEWESNGQPENNYKTTPPVLDSDGSFFLYSKLTVDKSRWQQGNVFSCSVMHEALHNHYTQKSLSLSPGAGGGGSGGGGSGGGGSQLQLQESGPGLVKPSETLSLTCSVSGGSISTSSYYWGWIRQPPGKGLEWSGSIYYSGSTYYRPSLQGRATISVDTSKNQFSLKLTSVTAADTAVYYCARHRGSYFFDIWGLGTLVTVSSASTKGPSVFPLAPSSKSTSGGTAALGCLVKDYFPEPVTVSWNSGALTSGVHTFPAVLQSSGLYSLSSVVTVPSSSLGTQTYICNVNHKPSNTKVDKRVEPKSC light: SYELTQPLSVSVALGQTARMTCGGSDIENKNVHWYQQKPGQAPVLVIHRDNNRPSGIPERFSGSNSGNTATLTISRAQAGDEADYYCQVRDSNIVVFGGGTKLTVLGQPKAAPSVTLFPPSSEELQANKATLVCLISDFYPGAVTVAWKADSSPVKAGVETTTPSKQSNNKYAASSYLSLTPEQWKSHKSYSCQVTHEGSTVEKTVAPTECS |  |  |  |  |  | ~6 |  |  |  |  |  |  | 20.3 | 5.5 | 7.2
95B06 (IgG) (antibody) heavy: not shown light: DMQMTQSPSSLSASVGDRVTITCRASQGIRNDLDWYQQKPGKVPKRLIHAASSLQSGVPSRFSGSGSGTEFTLTISSLQPEDFVTYYCLQHNTYPWTFGQGTKLEIKRTVAAPSVFIFPPSDEQLKSGTASVVCLLNNFYPREAKVQWKVDNALQSGNSQESVTEQDSKDSTYSLSSTLTLSKADYEKHKVYACEVTHQGLSSPVTKSFNRGEC | 42.4 | binds | no binding | 3.7 | 7.4 |  |  |  |  |  |  |  |  |  | 
97G07 (FcFab) (antibody, IgG1, also called 97G07(2); anti-OX40L FcFab antibody 97G07) heavy: EPKSSDKTHTCPPCPAPPVAGPSVFLFPPKPKDTLMISRTPEVTCVVVDVSHEDPEVKFNWYVDGVEVHNAKTKPREEQYNSTYRVVSVLTVLHQDWLNGKEYKCAVSNKALPSSIEKTISKAKGQPREPQVYTLPPSREEMTKNQVSLTCLVKGFYPSDIAVEWESNGQPENNYKTTPPVLDSDGSFFLYSKLTVDKSRWQQGNVFSCSVMHEALHNHYTQKSLSLSPGAGGGGSGGGGSGGGGSQLQLQESGPGLVKPSETLSLTCTVSGGSISSSSYYWGWIRQPPGKGLEWIGGIGSVDYSGNTYYKPSLKSRVTISVDTSKNQFSLKLSTVTAADTAVYHCARHRGIYFFDYWGQGTLVTVSSASTKGPSVFPLAPSSKSTSGGTAALGCLVKDYFPEPVTVSWNSGALTSGVHTFPAVLQSSGLYSLSSVVTVPSSSLGTQTYICNVNHKPSNTKVDKRVEPKSC light: YYELTQPLSVSVALGQTARIPCGGNNIENKNVHWYQQKPGQAPVLVIYRDSNRPSGIPERFSGSNSGNTATLSINRAQAGDEADYYCQVWDSNTVIFGGGTKVTVLGQPKAAPSVTLFPPSSEELQANKATLVCLISDFYPGAVTVAWKADSSPVKAGVETTTPSKQSNNKYAASSYLSLTPEQWKSHKSYSCQVTHEGSTVEKTVAPTECS |  |  |  |  |  | ~6 |  |  |  |  |  |  | 27.9 | 6.2 | 4.6

The next lines start with the values.

Kd [1] [nM] | binding result [2] | binding result (mouse OX40L) | OX40L neutralization/OX40-HEK Reporter IC50 (AVI-GST-His6-hOX40L [3]) [nM] | Primary T cell activation assay IC50 [4] [nM] | IC50 (read off the curve) (AVI-GST-His6-hOX40L [5]) [nM] | IC50 (read off the curve) (AVI-GST-His6-hOX40L [6]) [nM] | Kd [7] [nM] | OX40L neutralization/OX40-HEK Reporter IC50 (AVI-GST-His6-hOX40L [8]) [nM] | Primary T cell activation assay IC50 [9] [nM] | IC50 (read off the curve) (AVI-GST-His6-hOX40L [10]) [nM] | Kd [11] [nM] | Kd [12] [nM] | OX40L neutralization/OX40-HEK Reporter IC50 (AVI-GST-His6-hOX40L [13]) [nM] | Primary T cell activation assay IC50 [14] [nM] | Binder
 |  |  |  |  | ~6 | ~4 | 15 | 6.6 | 9.3 | ~3 | 15 |  |  |  | Ref2_Anti_OX40L (antibody, human IgG1, kappa, V domains shown) VH: EVQLLESGGGLVQPGGSLRLSCAASGFTFNSYAMSWVRQAPGKGLEWVSIISGSGGFTYYADSVKGRFTISRDNSRTTLYLQMNSLRAEDTAVYYCAKDRLVAPGTFDYWGQGALVTVSS VL: DIQMTQSPSSLSASVGDRVTITCRASQGISSWLAWYQQKPEKAPKSLIYAASSLQSGVPSRFSGSGSGTDFTLTISSLQPEDFATYYCQQYNSYPYTFGQGTKLEIKR
 |  |  |  |  |  | ~5 | 31.9 | 7.3 | 5.7 |  | 31.9 |  |  |  | Ref1_Anti-OX40L (US Pat. No. 9,139,653) (antibody, V domains shown) VH: EVQLVESGGGLVQPGGSLRLSCAASGFTFSNYAMNWVRQAPGKGLEWVSTISGSGGATRYADSVKGRFTISRDNSRNTVYLQMNSLRVEDTAVFYCTKDRLIMATVRGPYYYGMDVWGQGTTVTVSS VL: DIQMTQSPSSLSASVGDRVTITCRASQSISSYLNWYQQKPGKAPNLLIYAASSLQSGVPSRFSGSGSETDFTLTISSLQPEDFATYYCQQSHSVSFTFGPGTKVDIK
16.6 | binds | no binding | 7.5 | 16.7 |  |  |  |  |  | ~9 |  |  |  |  | 97G07 (IgG) (antibody) heavy: not shown light: YYELTQPLSVSVALGQTARIPCGGNNIENKNVHWYQQKPGQAPVLVIYRDSNRPSGIPERFSGSNSGNTATLSINRAQAGDEADYYCQVWDSNTVIFGGGTKVTVLGQPKAAPSVTLFPPSSEELQANKATLVCLISDFYPGAVTVAWKADSSPVKAGVETTTPSKQSNNKYAASSYLSLTPEQWKSHKSYSCQVTHEGSTVEKTVAPTECS
